Reference: article doi:10.1101/483925 (bioRxiv, 2018)

B1: 14-3-3n (At3g02520; GRF7) (natural protein)
chain: MSSSREENVYLAKLAEQAERYEEMVEFMEKVAKTVDTDELTVEERNLLSVAYKNVIGARRASWRIISSIEQKEESRGNDDHVSIIKDYRGKIETELSKICDGILNLLDSHLVPTASLAESKVFYLKMKGDYHRYLAEFKTGAERKEAAESTLVAYKSAQDIALADLAPTHPIRLGLALNFSVFYYEILNSPDRACSLAKQAFDEAISELDTLGEESYKDSTLIMQLLRDNLTLWNSDINDEAGGDEIKEASKHEPEEGKPAETGQ

Assays:
[1] = target: T1, FD, full-length, phosphomimic variant T282E (Arabidopsis thaliana, UniProt Q84JK2 1-285, T282E); assay: native gel or EMSA
T1 sequence: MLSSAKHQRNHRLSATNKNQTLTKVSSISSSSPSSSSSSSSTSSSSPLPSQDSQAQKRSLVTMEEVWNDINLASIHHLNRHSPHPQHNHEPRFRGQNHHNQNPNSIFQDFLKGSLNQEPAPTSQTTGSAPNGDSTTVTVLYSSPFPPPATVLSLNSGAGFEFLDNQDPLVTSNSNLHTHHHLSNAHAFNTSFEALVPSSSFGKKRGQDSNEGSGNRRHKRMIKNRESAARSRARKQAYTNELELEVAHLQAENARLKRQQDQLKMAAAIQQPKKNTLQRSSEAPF

[2] = target: B1; assay: native gel or EMSA

Binder	binding result [1]	binding result [2]
B1	binds	
TERMINAL FLOWER 1 (TFL1) (natural protein) not shown		binds
FLOWERING LOCUS T (FT) (natural protein) not shown		binds
FD-C_T282E, phosphomimic variant of the C-terminal domain of FD (amino acids 203-285) (domain or fragment) KKRGQDSNEGSGNRRHKRMIKNRESAARSRARKQAYTNELELEVAHLQAENARLKRQQDQLKMAAAIQQPKKNTLQRSSEAPF		binds
